{"source": "patent US20120052075A1", "about": "(H LUNDBECK A S, published 2012)", "molecules": {"B1": {"name": "soluble full-length extracellular domain of p75^NTR (receptor)", "chain": "KEACPTGLYTHSGECCKACNLGEGVAQPCGANQTVCEPCLDSVTFSDVVSATEPCKPCTECVGLQSMSAPCVEADDAVCRCAYGYYQDETTGRCEACRVCEAGSGLVFSCQDKQNTVCEECPDGTYSDEANHVDPCLPCTVCEDTERQLRECTRWADAECEEIPGRWITRSTPPEGSDSTAPSTQEPEAPPEQDLIASTVAGVVTTVMGSSQPVVTRGTTDN", "notes": "Whole entry named; also called p75 ECD"}, "B2": {"name": "mature BDNF (ligand)", "chain": "HSDPARRGELSVCDSISEWVTAADKKTAVDMSGGTVTVLEKVPVSKGQLKQYFYETKCNPMGYTKEGCRGIDKRHWNSQCRTTQSYVRALTMDSKKRIGWRFIRIDTSCVCTLTIKRGR"}}, "key": {"[1]": {"molecular_target": "soluble SorCS2 (extracellular domain of SorCS2), immobilized on the Biacore chip (Homo sapiens in the sequence list; not stated for the assay) (UniProt Q96PQ0)", "sequence (Q96PQ0 51-1078 S716P limits assumed)": "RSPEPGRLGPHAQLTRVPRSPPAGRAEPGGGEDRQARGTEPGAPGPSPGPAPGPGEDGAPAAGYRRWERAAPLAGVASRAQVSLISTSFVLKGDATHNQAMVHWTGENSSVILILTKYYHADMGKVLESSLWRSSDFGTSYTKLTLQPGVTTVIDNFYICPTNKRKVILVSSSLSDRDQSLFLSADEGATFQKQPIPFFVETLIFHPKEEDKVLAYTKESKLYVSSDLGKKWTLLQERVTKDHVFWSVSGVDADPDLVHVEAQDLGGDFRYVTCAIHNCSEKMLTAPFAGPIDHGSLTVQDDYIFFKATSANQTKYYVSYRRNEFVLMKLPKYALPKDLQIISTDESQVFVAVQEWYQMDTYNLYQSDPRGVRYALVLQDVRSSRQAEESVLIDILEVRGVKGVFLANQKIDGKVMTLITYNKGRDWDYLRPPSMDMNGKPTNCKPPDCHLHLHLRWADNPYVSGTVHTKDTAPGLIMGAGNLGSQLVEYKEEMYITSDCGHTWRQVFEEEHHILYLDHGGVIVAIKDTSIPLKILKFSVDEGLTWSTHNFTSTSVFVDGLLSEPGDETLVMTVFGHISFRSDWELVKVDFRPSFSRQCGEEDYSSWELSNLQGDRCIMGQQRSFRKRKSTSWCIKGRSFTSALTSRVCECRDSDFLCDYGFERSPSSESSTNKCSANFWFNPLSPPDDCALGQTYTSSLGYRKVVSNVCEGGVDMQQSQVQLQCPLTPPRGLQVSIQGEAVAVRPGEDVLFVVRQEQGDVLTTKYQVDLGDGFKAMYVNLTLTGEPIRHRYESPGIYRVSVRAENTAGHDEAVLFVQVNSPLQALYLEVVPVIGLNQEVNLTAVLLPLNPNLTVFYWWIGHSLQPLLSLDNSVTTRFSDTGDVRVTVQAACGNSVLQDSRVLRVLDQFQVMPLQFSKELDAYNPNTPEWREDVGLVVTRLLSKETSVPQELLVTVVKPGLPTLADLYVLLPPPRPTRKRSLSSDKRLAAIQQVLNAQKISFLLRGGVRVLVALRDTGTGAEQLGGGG", "experiment": "SPR (BIAcore), soluble SorCS2 immobilized, propeptide at 20 nM and 50 nM"}, "[2]": {"molecular_target": "T1, soluble SorCS2 (extracellular domain of SorCS2), immobilized on the Biacore chip (Homo sapiens in the sequence list; not …, UniProt Q96PQ0 51-1078)", "T1 construct": "also called immobilized soluble SorCS2", "T1 sequence (Q96PQ0 51-1078 S716P limits assumed)": "as above", "experiment": "SPR (BIAcore), soluble SorCS2 immobilized, p75 ECD at 1 uM", "procedure": "FIG. 6: Physical interaction between SorCS2 and p75^NTR. A, HEK293 cells stably transfected with SorCS2 and p75^NTR encoding vectors were crosslinked with DSP (Pierce) and subsequently lysed. The cell lysate was incubated with antibody against SorCS2 bound to Gammabind beads (GE Healthcare). The precitated complexes were eluted from the washed beads with SDS loading buffer. […] The presence of p75^NTR and IgG heavy is indicated. HEK293 cells stably transfected with a p75^NTR encoding plasmid alone were used as negative control. B, surface plasmon resonance experiment (BIAcore) showing the direct interaction of soluble full-length extracellular domain of p75^NTR (p75 ECD) with immobilized soluble SorCS2. The p75 ECD concentration used was 1 μM.\nHEK293 cells stably transfected with plasmids encoding SorCS2 and p75^NTR were crosslinked with DSP (Pierce) and subsequently lysed. The cell lysate was incubated with antibody against SorCS2 bound to Gammabind beads (GE Healthcare). Precipitated complexes were eluted from the washed beads with SDS loading buffer. […] A biosensor chip from Biacore (CM5, cat.no. BR-1000-14) was activated using the NHS/EDC method as described by the supplier followed by coating with SorCS2 (FIG. 6B)."}, "[3]": {"molecular_target": "T1, soluble SorCS2 (extracellular domain of …)", "experiment": "SPR (BIAcore), soluble SorCS2 immobilized, BDNF at 10 nM and 20 nM"}}}
{"molecule": "BDNF propeptide (from UniProt P23560 19-128) (ligand)", "values": [{"measurement": "Kd", "setting": "[1]", "value": 15, "unit": "nM"}]}
{"molecule": "B1", "values": [{"measurement": "Kd", "setting": "[2]", "value": "~10", "unit": "nM"}]}
{"molecule": "B2", "values": [{"measurement": "Kd", "setting": "[3]", "value": 5, "unit": "nM"}]}
